Measurements taken from the supplement of paper PMC9170038.

Test system: MS2 coat protein
Test: apparent KD of MS2 coat protein; designed switch direction (-1 OFF switch, 1 ON switch): 1; higher = weaker reporter binding
Outline: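 The buffer was Tris-HCl pH 7.5 with KCl, MgCl2, BSA, DTT, tRNA and Tween-20. In it, SNAP-549-labelled MS2 coat protein was titrated in doubling steps from 0.7 or 1.5 nM to 3 µM over chip-bound RNA switches transcribed by stalled E. coli RNA polymerase on Illumina chips. Apparent KD is the per-design median over clusters of curve fits to normalised fluorescence.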

[1] = input ligand: microRNA oligo, concentration not stated
[2] = Eterna round: R95, input ligand: FMN 200 uM
[3] = Eterna round: R95, input ligand: microRNA oligo, concentration not stated
[4] = Eterna round: R95, input ligand: none

Sequence	apparent KD of MS2 coat protein (input ligand: FMN 200 uM) [nM]	apparent KD of MS2 coat protein [1] [nM]	apparent KD of MS2 coat protein (input ligand: none) [nM]	apparent KD of MS2 coat protein [2] [nM]	apparent KD of MS2 coat protein [3] [nM]	apparent KD of MS2 coat protein [4] [nM]
UUUACUUUCAUAGGAUAUCAUGCGAAAAUUGCGUGAGAAGGGUGAAUACUGUCUUUCUAAGAGUACAUGAGGAUCACCCAUGUA [SameState NG1 #64] (Eterna round: R96, puzzle: Same State NG 1)	56.9	45.8	51.2	–	–	–
GGAAUAUUUACAGGAUAUGAUUUGUUAAGUCGAUCAGAAGGGUGGAUGUCUUACACGGUUUGUUACAUGAGGAUCACCCAUGUC [SameState NG1 #14] (Eterna round: R96, puzzle: Same State NG 1)	73.3	74	176	–	–	–
AUCUCUGUGCCGCAGGAUAUACCAACGGCUACAUGAGGAUCACCCAUGUCAUACCGUCGAAAGUGGUAGAAGGGUGUGCACGAGC [Reteonar] (puzzle: Same State 2)	–	–	–	17.7	90.6	113
AGCCGAGACACAGGAUAUAGAUAUCUACAUGAGGAUCACCCAUGUAGCAACACGUGGUAGUGAUACUAGAAGGGUGCUCGGCGC [Omei SS(NG)2 Cv9] (Eterna round: R96, puzzle: Same State NG 2)	20.2	60	73.1	–	–	–
GUGGUCAGACAUGAGGAUCACCCAUGUGGAAUAAAUAACAGACAGGAUAUAUAAUAUAGGAUAUAGUAGAAGGGUCGAUUGGUG (Eterna round: R96, puzzle: Same State NG 3)	–	69.7	–	–	–	–
CCGCUCUAUGGAGGAUAUGGGCCUGCCCGGGAUAACGGGCCUAAUACAUGAGGAUCACCCAUGUCCCAGAAGGCCGCUAGAGCC [Errexexe] (Eterna round: R96, puzzle: Same State NG 2)	120	348	471	–	–	–
UAAUGUUUGCGAGGAUAUCGUUUAUUGAAGUUACGAGAAGGCGCUCUUCUUACAUGAGGAUCACCCAUGUCUGUUUUGCAUGAU [JR_SSNG1_Sub069] (Eterna round: R96, puzzle: Same State NG 1)	44.4	56.8	81.5	–	–	–
AGCUAGUACGAAGGAUAUACAAACAUGAGGAUCACCCAUGUAUACAUGGUUUGAUGAGACUACAUGUAGAAGGUCGUACUAGCA [SameState NG2 #14] (Eterna round: R96, puzzle: Same State NG 2)	–	176	–	–	–	–
ACUCAGUACAAUUUAGAUCUACAUGAGGAUCACCCAUGUACUGAGGAUAUCAGCUCGUUUAGAGCUGAGAAGGCAGUUGUACUA [SSNG3/10-A3] (Eterna round: R96, puzzle: Same State NG 3)	108	221	311	–	–	–
AAUUAUUAACAUGAGGAUCACCCAUGUAUAAGGGAGAAUAUUAUUAUUAUUAUUAACAAGCUUUUUGCUUGUCUCAU [Ribo-boogie] (puzzle: Sensor for hsa-mir-208a version 2)	–	–	–	48.6	67.9	68.4
AAGAAAGACGCAGGAUAUCAGCGCAAACCGCACUGAGAAGGGUGAGACAUGAGGAUCACCCAUGUAACACGGCAAAACGCCGUG [Lausgeledi] (Eterna round: R96, puzzle: Same State NG 1)	1530	268	219	–	–	–
UAUGAAUUGCAAGGAUAUUGAUAACAUGAGGAUCACCCAUGUAAUUGAUCGAGUUAGAUCAGUUACAAGAAGGUGCUAUUGUUU [JR_SSNG2_Sub037] (Eterna round: R96, puzzle: Same State NG 2)	1810	33.2	70	–	–	–
UUUGCAUGACGAGGAUAUCAUUUAUUUCUUGAUUGAGAAGGCGUUCUUUUUAAUACCUAACAUGAGGAUCACCCAUGUGACAGU [JR_SSNG1_Sub047] (Eterna round: R96, puzzle: Same State NG 1)	–	13.1	–	–	–	–
GGAGCCGGUACUGAGGAUAUUCAUAUUAAAACAUGAGGAUCACCCAUGUAGGCCAGAAGGCCUUGGGAGAAGGCAGACCAGCUCG [Atgexeedri] (Eterna round: R96, puzzle: Same State 2)	18	190	271	–	–	–
UUGUUUCGUCAUUAACAUGAGGAUCACCCAUGUAAAGAACCAGAGGAUAUGCAUGUUUGAUUGUAGCAGAAGGCUGAUUGUUGU [JR_SSNG3_Sub033] (Eterna round: R96, puzzle: Same State NG 3)	–	42.7	–	–	–	–
GAGGGCGAAAGCAACAUGAGGAUCACCCAUGUCCUCGGAGGGCAGGAUAUCCGGCGGUAGCCGAAGGAGAAGGGUCGGUAAGAA [AK SSNG3-V2-33.1] (Eterna round: R96, puzzle: Same State NG 3)	159	107	584	–	–	–

Sequence	apparent KD of MS2 coat protein (input ligand: FMN 200 uM) [nM]	apparent KD of MS2 coat protein [1] [nM]	apparent KD of MS2 coat protein (input ligand: none) [nM]	apparent KD of MS2 coat protein [2] [nM]	apparent KD of MS2 coat protein [3] [nM]	apparent KD of MS2 coat protein [4] [nM]
GUACUACAUGAGGAUCACCCAUGUUACCUUCACGGAGGAUAUAGGAAAUGAGGUGAGAUGCUAGAAGGCCGAGGAA [Candy Rainbow 4] (puzzle: Same State 1)	–	–	–	102	78.3	95.9
GAGGCACAUGAGGAUCACCCAUGUGGGUAUAACAUAGGAUAUCACCAACAAAAUACCCGGUGAGAAGGAUGAUGCC [Ravevele] (puzzle: Same State 1)	–	–	–	–	158	–
AUUCGUUUGAUAGGAUAUCACUUUACAUGAGGAUCACCCAUGUUCACCACGCUGGUCUCUUAUACUGAGAAGGAUCUUGAUGAC [JR_SSNG2_Sub009] (Eterna round: R96, puzzle: Same State NG 2)	22.9	18.8	28	–	–	–
AUAAGGCAAGCUUUUUUCUCGUAGUGUAAACAUGAGGAUCACCCAUGUGCCCGCUCUGGAUCUUUGGAUCGCAGAAA [Lavegeaus] (puzzle: Sensor for hsa-mir-208a)	–	–	–	26.6	18.2	25.9
GCUCGGCUGAUGGCCCACAUGAGGAUCACCCAUGUGAGUGGGCAGGAUAUCUAGAUUAAGGAUGUAGAGAAGGGCCUGCCGAGC [SameState NG3 #36] (Eterna round: R96, puzzle: Same State NG 3)	2290	19	559	–	–	–
ACAAGCUUUUUGCUCAUCUUAUGUCCGAAACAUGAGGAUCACCCAUGUAUAGAUUAUGUGUUGUUUUUGAUACAAGA [JR_SHM208A_Sub064] (puzzle: Sensor for hsa-mir-208a)	–	–	–	32.1	24.9	33.1
ACAUGAGACUCAGGAUAUGGUGUACCUACAUGUGACAUGAGGAUCACCCAUGUGGUAAGUAUGACUCAGAAGGGAGAGAUAUGU [Equivalance 76 - Jieux - Same State NG 2] (Eterna round: R96, puzzle: Same State NG 2)	37.4	116	171	–	–	–
GCUAGAAUUAAAGCCAACAUGAGGAUCACCCAUGUAUGUUGGCAGGAUAUCGUUUGCUUUGCAAACGAGAAGGGCCAUACUAGC [JL SSNG3 1.08] (Eterna round: R96, puzzle: Same State NG 3)	47.7	98.1	134	–	–	–
CGUCCGGCCUGUGCUGGCCGGUCGCUUGUACAUGAGGAUCACCCAUGUUCUUGUGCUGGCUUUUUGCUCGUCUUGUG [salish99_mir208a_020] (puzzle: Sensor for hsa-mir-208a)	–	–	–	27.1	17.7	31
AGAUCAUGACGAGGAUAUGGUACAUGAGGAUCACCCAUGUAUGUACCAUAAUUAGUAUUAGGAAACCAGAAGGCGUCGUGGUCA [JL SSNG2 1.18] (Eterna round: R96, puzzle: Same State NG 2)	10.1	55.7	85.4	–	–	–
GCAAUAAGGUGAGGAUAUGCAGAGGAUCACCCUGUAGAAGGCAUCAGGUGAGGAUAUGCAGAGGAUCACCCUGUAGAAGGCAUC [pwkr ssNG DX.15] (Eterna round: R96, puzzle: Same State NG 1)	100	123	175	–	–	–
AUUUUAAAACAUGAGGAUCACCCAUGUUACAAGCUUUUUUUUUUUUUUUUUUUUUGGUGAUCCUCAGCUCGUCUUAU [lrlee 1] (puzzle: Sensor for hsa-mir-208a version 2)	–	–	–	1.51	5.16	0.902
GGUCAGACUCACAUGAGGAUCACCCAUGUACCGGAAACGGCACAGGAUAUCUGUCCGAAAAGGUCAGAGAAGGGUGUACUGACC [Fiskers NG3ss - 53] (Eterna round: R96, puzzle: Same State NG 3)	277	22.9	82	–	–	–
GGCCAGAGUCAAGGAUAUGCUACCGUUUCGGUAGCAGAAGGUGAUCACAUGAGGAUCACCCAUGUUUACUGGGAGACCAUGGCC [JL SSNG1 3.69] (Eterna round: R96, puzzle: Same State NG 1)	219	136	112	–	–	–
UUAAUAAUGUUAGGAUAUACAUGAGGAAUCCUCGUAGAAGGAACAUGACAUGAGGAUCACCCAUGUAGCGCUCGAAAGAGCGCA [Mat - Same State NG 1 - JL mod - D48] (Eterna round: R96, puzzle: Same State NG 1)	25.6	16.3	417	–	–	–
